According to patent US20250011363A1, “OPTIMIZED SHORTENED PEPTIDE THAT BINDS TO ACETYLCHOLINE RECEPTOR, AND USE THEREOF” (SKINMED CO., LTD., priority 2021, published 2025):

molecular target: acetylcholine receptor; assay: SPR, AchR immobilized on chip

| Binder | Binding affinity (relative to RRQRR) (relative value to the RRQRR sequence) | Binding affinity (relative to RRGVRR) (value relative to the RRGVRR sequence) |
| --- | --- | --- |
| IRRQRR | 121 |  |
| ARRQRR | 129 |  |
| ERRQRR | 147 |  |
| RRGVRRP |  | 142 |
| RRGVRRG |  | 105 |
| RRQRRK | 175 |  |
| RRQRRH | 158 |  |
| QRRQRR | 105 |  |
| RRQRRL | 141 |  |
| DRRQRR | 163 |  |
| GRRGVRR |  | 137 |
| RRQRRW | 129 |  |
| RRQRRP | 137 |  |
| VRRQRR | 135 |  |
| LRRQRR | 144 |  |
| PRRQRR | 133 |  |
| RRQRRD | 65 |  |
| RRQRRM | 122 |  |
| RRQRRR | 192 |  |
| ARRGVRR |  | 134 |
| CRRQRR | 123 |  |
| RRQRRQ | 101 |  |
| YRRQRR | 130 |  |
| RRGVRRC |  | 131 |
| RRQRRT | 117 |  |
| RRGVRRV |  | 149 |

| Binder | Binding affinity (relative to RRQRR) (relative value to the RRQRR sequence) | Binding affinity (relative to RRGVRR) (value relative to the RRGVRR sequence) |
| --- | --- | --- |
| CRRGVRR |  | 128 |
| RRQRRA | 113 |  |
| RRQRRI | 133 |  |
| FRRQRR | 143 |  |
| RRQRRC | 126 |  |
| RRQRRE | 37 |  |
| RRGVRRA |  | 118 |
| RRQRRN | 109 |  |
| PRRGVRR |  | 138 |
| RRGVRRL |  | 146 |
| GRRQRR | 132 |  |
| RRQRRV | 120 |  |
| LRRGVRR |  | 149 |
| RRQRRS | 113 |  |
| KRRQRR | 173 |  |
| TRRQRR | 103 |  |
| RRQRRY | 105 |  |
| NRRQRR | 113 |  |
| HRRQRR | 164 |  |
| MRRQRR | 119 |  |
| WRRQRR | 138 |  |
| RRQRRF | 132 |  |
| RRRQRR | 189 |  |
| SRRQRR | 121 |  |
| VRRGVRR |  | 140 |
| RRQRRG | 109 |  |

molecular target: acetylcholine receptor; assay: SPR, peptide at 10 uM, acetylcholine receptor immobilized on chip

| Binder | Binding affinity (RU) |
| --- | --- |
| KDKGK [5mer-943] | 12 |
| KNHHR [5mer-941] | 21 |
| RMKWK [5mer-644] | 24 |
| RHKDK [5mer-645] | 20 |
| RITWK [5mer-641] | 22 |
| KDWIR [5mer-947] | 27 |
| KDSFK [5mer-948] | 18 |
| KHTVK [5mer-647] | 29 |
| KDTKR [5mer-646] | 16 |
| RYEFK [5mer-944] | 25 |
| RPSDR [5mer-942] | 11 |
| KHDGR [5mer-643] | 28 |
| KNKKR [5mer-648] | 15 |
| KCMGK [5mer-940] | 18 |
| RYEKR [5mer-945] | 23 |
| RAWDR [5mer-642] | 22 |
| KYPWR [5mer-946] | 32 |
